Patent publication US20120214208

Columns and labels:
[1] = test system: T4 DNA ligase (phage T4); details: transformation assay after 16 C 60 min; no-ligase control 4
[2] = test system: ligase-PprA (phage T4 / Deinococcus radiodurans fusion); details: transformation assay; no-ligase control 4
[3] = test system: p50-ligase (NF-kappaB p50 40-366 fused to N-terminus of T4 DNA ligase) (Homo sapiens / phage T4 fusion); details: transformation assay; no-ligase control 4

Substance “pCA24N-ompC HindIII/SpeI vector (5032 bp) and insert (1311 bp)” has an activity [1] of 47 colonies, an activity [2] of 53 colonies and an activity [3] of 17 colonies.
